{"source": "patent US20110274694", "proteins": {"B1": {"name": "His6-Erk2 (purified, wild-type) (protein)", "chain": "MAAAAAAGPEMVRGQVFDVGPRYTNLSYIGEGAYGMVCSAYDNLNKVRVAIKKISPFEHQTYCQRTLREIKILLRFRHENIIGINDIIRAPTIEQMKDVYIVQDLMETDLYKLLKTQHLSNDHICYFLYQILRGLKYIHSANVLHRDLKPSNLLLNTTCDLKICDFGLARVADPDHDHTGFLTEYVATRWYRAPEIMLNSKGYTKSIDIWSVGCILAEMLSNRPIFPGKHYLDQLNHILGILGSPSQEDLNCIINLKARNYLLSLPHKNKVPWNRLFPNADSKALDLLDKMLTFNPHKRIEVEQALAHPYLEQYYDPSDEPIAEAPFKFDMELDDLPKEKLKELIFEETARFQPGYRS"}}, "target": "purified Gβγ (G-protein βγ-subunits)", "data": [{"protein": "B1", "values": [{"measurement": "phosphorylation of Erk2 ([32P]-autoradiography)", "result": "caused increased phosphorylation of Erk2 to an extent similar to that caused by Mek*"}]}]}
